Reference: article PMC10953402, “Structure and Function of the α‐Hydroxylation Bimodule of the Mupirocin Polyketide Synthase” (Angewandte Chemie (International Ed. in English), 2023)

Legend:
[1] = biological target: the molecule itself; test: not stated; purification of recombinant Fre (Figure S6); how the dimer was shown is not told
[2] = biological target: the molecule itself; test: SEC; purified MupA alone, at higher concentrations (>2 mg/ml)
[3] = biological target: the molecule itself; test: SEC; purified MupA alone, at the lower concentrations (not above 2 mg/ml)

B1: Fre (enzyme, E. coli, UniProt P0AEN1 1-233, looked up)
chain: MTTLSCKVTSVEAITDTVYRVRIVPDAAFSFRAGQYLMVVMDERDKRPFSMASTPDEKGFIELHIGASEINLYAKAVMDRILKDHQIVVDIPHGEAWLRDDEERPMILIAGGTGFSYARSILLTALARNPNRDITIYWGGREEQHLYDLCELEALSLKHPGLQVVPVVEQPEAGWRGRTGTVLTAVLQDHGTLAEHDIYIAGRFEMAKIARDLFCSERNAREDRLFGDAFAFI
notes: NAD(P)H:flavin oxidoreductase Fre of E. coli (GenBank M61182); Purified as the expected dimer; also called oxidoreductase Fre; E. coli Fre; source: E. coli, overexpressed, purified
Question: How did the “stoichiometry N” value [1] turn out when B1 was run?
Answer: 2

B2: MupA (enzyme, Pseudomonas fluorescens, UniProt Q9AH80 1-369, looked up)
chain: MSVEQLLGLGVTNAARAPRQPAFSLLFFSDVREDISASEKYEFARSLTLFGDAQGFEAVYFPERHFHEFGAIYPDSAVMAASLIPQTRHIRFRTAGISLPLHHPARVVESWSMNDVLSGGRVDLGFGSGWSRPDFLLAPHAYEDRREVMWQRIEQVRRLWAGERLSFPGPGGDPVSVVTFPRPLQTSLNVWILVAQNTESFIAAGKAGFNVFTMLYGIDLPDLAEKIGLYRQARRDAGFDPASGRVTLMLHTLVGPDSAWVRRAVEAPFKDYIRSSLVAHMKARATPDGRPLDATEQENVLQYAFERYYETGALFGTVDEVRYRVGQVLETGVDEIACLMDFGVDYAVVHQSLPYLEQLVASFQERSAQ
notes: MupA, predicted FMNH2-dependent monooxygenase of the mupirocin biosynthetic gene cluster of Pseudomonas fluorescens NCIMB 10586; Dimer by SEC, dimer of dimers above 2 mg/ml; Used unlabelled in the NMR titrations; they may stand in the Supporting Information; also called flavin-dependent monooxygenase MupA; FMO; source: cloned, over-expressed and purified to homogeneity
Question: With B2 as the protein, how does the “stoichiometry N” value [2] read?
Answer: 4

Question: What about the “stoichiometry N” value [3] of the same protein?
Answer: 2
